Assay results from patent US5434068.

Test system: BglII restriction endonuclease (R.BglII) (Bacillus globigii)
Test: cleavage_in_vitro
Details: nonspecific nicking test; 80 units, 4 h, 37 C, 10 mM MgCl2

Substance: phiX174 RFI DNA
- activity (% converted to RFII): 10
